Measurements reported in patent US20260207767A1.

How the values were obtained:
[1] = biological target: human PD-1 expressed on cells (human) (UniProt Q15116); test: flow cytometry, CHO-S hPD-1
[2] = biological target: cynomolgus PD-1 expressed on cells (cynomolgus monkey) (UniProt B0LAJ3); test: flow cytometry, CHO-S Cyno-PD-1
[3] = biological target: recombinant cynoPD-1 (construct not stated) (cynomolgus monkey) (UniProt B0LAJ3); test: ELISA
[4] = biological target: recombinant hPD-1 (construct not stated) (human) (UniProt Q15116); test: ELISA
Sequence of recombinant hPD-1 (construct not stated) (human) (Q15116 25-167 limits assumed): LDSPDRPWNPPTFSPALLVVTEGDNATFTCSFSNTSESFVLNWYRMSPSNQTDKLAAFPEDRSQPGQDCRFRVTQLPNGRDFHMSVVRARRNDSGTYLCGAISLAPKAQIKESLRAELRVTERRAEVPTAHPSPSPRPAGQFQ

Sequence of cynomolgus PD-1 expressed on cells (cynomolgus monkey) (B0LAJ3 entry or part of it limits assumed): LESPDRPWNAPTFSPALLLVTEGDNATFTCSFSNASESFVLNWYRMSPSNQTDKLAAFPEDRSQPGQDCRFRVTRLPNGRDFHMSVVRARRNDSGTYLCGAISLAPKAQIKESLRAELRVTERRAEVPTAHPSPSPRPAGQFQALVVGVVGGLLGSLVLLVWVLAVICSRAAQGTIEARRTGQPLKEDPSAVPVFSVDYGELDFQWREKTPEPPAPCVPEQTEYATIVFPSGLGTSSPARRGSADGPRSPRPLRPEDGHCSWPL
Sequence of human PD-1 expressed on cells (human) (Q15116 25-288): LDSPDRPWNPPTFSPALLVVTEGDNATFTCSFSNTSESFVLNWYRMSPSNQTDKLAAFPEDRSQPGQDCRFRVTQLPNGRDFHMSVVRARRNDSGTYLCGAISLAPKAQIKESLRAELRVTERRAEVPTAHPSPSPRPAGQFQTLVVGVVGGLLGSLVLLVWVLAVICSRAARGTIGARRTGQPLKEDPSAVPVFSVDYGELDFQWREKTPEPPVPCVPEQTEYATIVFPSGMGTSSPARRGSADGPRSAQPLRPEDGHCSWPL
Sequence of recombinant cynoPD-1 (construct not stated) (cynomolgus monkey) (B0LAJ3 entry or part of it limits assumed): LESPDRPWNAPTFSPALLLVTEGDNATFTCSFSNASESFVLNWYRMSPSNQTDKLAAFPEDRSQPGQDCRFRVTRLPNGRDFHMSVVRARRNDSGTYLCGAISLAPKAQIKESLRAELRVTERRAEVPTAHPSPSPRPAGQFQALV

Question: Which results are given for NC.hIgG1 (antibody)?
Answer: Max MFI [1]: 184 MFI; Max MFI [2]: 206 MFI; Max OD [3]: 0.07 OD; Max OD [4]: 0.05 OD
